Assay results as given in patent US20090175881A1 (SCHERING, published 2009).
Values joined by “and” are separate entries in the source; they are usually repeats but may differ in a detail not shown here. Equal values may be shown once.

T1: FLAG-huIL-17A (human, UniProt Q16552 24-155)
T1 construct: also called FLAG-huL-17A; FLAG-IL-17A
T1 sequence: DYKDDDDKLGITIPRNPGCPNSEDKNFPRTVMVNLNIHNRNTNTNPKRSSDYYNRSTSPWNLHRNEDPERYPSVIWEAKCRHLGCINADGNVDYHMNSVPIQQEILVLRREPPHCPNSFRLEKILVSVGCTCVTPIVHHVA

T2: cynomolgus monkey IL-17A (cynomolgus monkey, UniProt A0A2K5TTB0 24-155)
T2 sequence: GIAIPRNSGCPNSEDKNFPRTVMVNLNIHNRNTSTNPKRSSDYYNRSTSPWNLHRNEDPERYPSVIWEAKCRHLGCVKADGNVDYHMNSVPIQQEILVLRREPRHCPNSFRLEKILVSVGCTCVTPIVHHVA

T3: native human IL-17A (human, UniProt Q16552 24-155)
T3 sequence: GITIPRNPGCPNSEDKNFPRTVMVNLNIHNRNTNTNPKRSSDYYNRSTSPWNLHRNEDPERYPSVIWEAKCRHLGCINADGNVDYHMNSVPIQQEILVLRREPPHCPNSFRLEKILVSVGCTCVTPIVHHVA

T4: rhIL-17A (human, UniProt Q16552 24-155)
T4 sequence: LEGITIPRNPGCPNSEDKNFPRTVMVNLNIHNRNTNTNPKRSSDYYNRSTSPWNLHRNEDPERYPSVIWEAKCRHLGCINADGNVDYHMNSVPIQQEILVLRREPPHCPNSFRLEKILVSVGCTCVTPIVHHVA

T5: mouse IL-17A (mouse, UniProt Q62386 26-158, limits assumed)
T5 construct: also called mu IL-17A; mu IL-17
T5 sequence (looked up): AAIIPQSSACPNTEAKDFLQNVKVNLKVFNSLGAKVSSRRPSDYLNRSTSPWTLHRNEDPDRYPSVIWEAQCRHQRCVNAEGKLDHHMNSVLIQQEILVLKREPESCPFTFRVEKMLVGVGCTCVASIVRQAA

T6: R&D Systems human IL-17A (human, UniProt Q16552 20-155)
T6 construct: Bought from R&D Systems, made in E. coli; also called R&D IL-17A; E. coli-derived human IL-17 (IL-17A)
T6 sequence: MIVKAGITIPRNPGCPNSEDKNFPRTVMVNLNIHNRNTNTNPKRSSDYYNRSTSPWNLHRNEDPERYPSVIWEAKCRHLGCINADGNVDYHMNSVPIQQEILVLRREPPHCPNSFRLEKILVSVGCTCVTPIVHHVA

T7: FLAG-tagged human IL-17F (human, UniProt Q96PD4 31-163, limits assumed)
T7 construct: also called intact IL-17F
T7 sequence: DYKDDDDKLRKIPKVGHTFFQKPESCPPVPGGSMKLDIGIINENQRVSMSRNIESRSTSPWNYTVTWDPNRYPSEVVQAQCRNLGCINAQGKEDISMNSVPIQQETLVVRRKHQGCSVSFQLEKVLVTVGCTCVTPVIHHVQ

T8: FLAG-tagged mouse IL-17A (mouse, UniProt Q62386 26-158, limits assumed)
T8 construct: also called mIL-17A; intact mIL-17A
T8 sequence: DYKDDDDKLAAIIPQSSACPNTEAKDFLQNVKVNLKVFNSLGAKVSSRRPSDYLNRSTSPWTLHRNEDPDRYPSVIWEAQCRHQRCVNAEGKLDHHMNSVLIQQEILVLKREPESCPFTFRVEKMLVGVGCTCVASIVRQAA


What was measured:
[1] = molecular target: T1, FLAG-huIL-17A; assay: ECL (Origen), antibody titrated against biotinylated antigen; area under the curve
From the text: (§1) Origen electrochemiluminescence technology, developed by IGEN, Inc. (Gaithersburg, Md., USA), and was employed to measure the binding of rat anti-human IL-17A antibodies (and one chimeric antibody) to FLAG-huL-17A. […] Electrochemiluminescence technology uses a stable ruthenium metal chelate (Ori-TAG) which, in the presence of tripropylamine (TPA), generates electrochemiluminescence upon voltage application. Paramagnetic beads, microns in diameter, act as the solid phase and facilitate rapid assay kinetics. The bead/complex is channeled through a flow cell and captured at an electrode by magnetic application. Voltage is applied and resulting electrochemiluminescence is measured.
(§2) ECL assays were performed as follows. Three-fold serial dilutions of anti-human IL-17A mAbs in 50 μl of the assay buffer were made in a 96-well microtiter plate to give 1-3 μg/ml final concentration in the first well. […] Finally 50 μl of Origen Streptavidin-Dynabeads at 0.1 mg/ml was added to each well. […] GraphPad Prism software (GraphPad Software, San Diego, Calif., USA) was used to plot the data and calculate area under the curve, which is a rough measure of binding.

[2] = molecular target: T2, cynomolgus monkey IL-17A; assay: cell-based or functional assay
[3] = molecular target: T3, native human IL-17A; assay: cell-based or functional assay
[4] = molecular target: T4, rhIL-17A; assay: cell-based or functional assay
[5] = molecular target: T4, rhIL-17A; assay: cell-based or functional assay; remark: listed apart in the source
[6] = molecular target: T5, mouse IL-17A; assay: KinExA, solution equilibrium
Method: (§3) The equilibrium dissociation constants (Kd) for anti human IL-17A antibodies were determined using the KinExA 3000 instrument (Sapidyne Instruments Inc., Boise, Id., USA). KinExA uses the principle of the Kinetic Exclusion Assay method based on measuring the concentration of uncomplexed antibody in a mixture of antibody, antigen and antibody-antigen complex. […] The concentration of free antibody is measured by exposing the mixture to a solid-phase immobilized antigen for a very brief period of time. l practice, this is accomplished by flowing the solution phase antigen-antibody mixture past antigen-coated particles trapped in a flow cell. Data generated by the instrument are analyzed using custom software.
(§4) IL-17A was derived from either human (“hu”), cynomolgus monkey (“cyno”), or mouse (“mu”). IL-17A from the same species was used in both the immobilized and solution phases for each KinExA determination. Poly(methyl-methacrylate) (PMMA) particles (98 micron) were coated with human, cyno or mouse IL-17A according to Sapidyne “Protocol for coating PMMA particles with biotinylated ligands having short or nonexistent linker arms.” All experimental procedures were done according to the KinExA 3000 manual. All runs were done in duplicate.
(§5) Two-fold serial dilutions of the antigen were prepared and mixed with the antibody at constant concentration. The mixture was incubated for 2 hours at 25° C. to equilibrate.

[7] = molecular target: T2, cynomolgus monkey IL-17A; assay: KinExA, solution equilibrium
Method: as §3, §4, §5

[8] = molecular target: T1, FLAG-huIL-17A; assay: KinExA, solution equilibrium
Method: as §3, §4, §5

[9] = molecular target: T2, cynomolgus monkey IL-17A; assay: cell-based or functional assay; remark: listed apart in the source
[10] = molecular target: T4, rhIL-17A; assay: cell-based or functional assay; remark: listed apart in the source
[11] = molecular target: T2, cynomolgus monkey IL-17A; assay: cell-based or functional assay; remark: listed apart in the source
[12] = molecular target: T3, native human IL-17A; assay: cell-based or functional assay; remark: listed apart in the source
[13] = molecular target: T4, rhIL-17A; assay: cell-based or functional assay; remark: listed apart in the source
[14] = molecular target: T5, mouse IL-17A; assay: ECL (Origen); area under the curve
From the text: as §1, §2

[15] = molecular target: T2, cynomolgus monkey IL-17A; assay: ECL (Origen); area under the curve
From the text: as §1, §2

[16] = molecular target: T2, cynomolgus monkey IL-17A; assay: cell-based or functional assay; remark: listed apart in the source
[17] = molecular target: T4, rhIL-17A; assay: cell-based or functional assay; remark: listed apart in the source
[18] = molecular target: T4, rhIL-17A; assay: KinExA, solution equilibrium
Method: as §3, §4, §5

[19] = molecular target: T6, R&D Systems human IL-17A; assay: sandwich ELISA, IL-17A captured on rat 12E6, antibody titrated
Method: (§6) Binding of anti-human-IL-17A monoclonal antibodies to rhIL-17A is assessed using an ELISA as follows. Briefly, a capture antibody is bound to the wells of a microtiter plate, after which a fixed concentration of rhIL-17A is added. The monoclonal anti-IL-17A to be assayed is then titrated versus the bound rhIL-17A on the plate to determine the concentration of antibody needed to achieve half-maximal binding. A more detailed protocol follows.
(§7) A 96-well microtiter plate is coated with 100 μl/well of capture antibody (rat anti-hIL-17A 12E6, 0.5 μg/ml) in carbonate coating buffer pH 9.5 (the “assay plate”). Plates are incubated covered at 4° C. for 24 to 48 hours. The assay plate is washed three times in a plate washer (SkanWasher, Molecular Devices, Sunnyvale, Calif., USA) and blotted dry. The plate is then blocked with 200 μl/well of ELISA assay buffer (20 mM Tris-HCl, 0.15 M NaCl, pH7.4, 0.5% BSA, 0.05% Tween-20, SM EDTA) for one hour at 25° C. on an orbital shaker. The plate is washed, and 100 μl/well of either adenovirus-derived rhIL-17A or E. coli-derived human IL-17 (IL-17A) (R&D Systems, Minneapolis, Minn., USA) (0.1 g/ml) is added in ELISA assay buffer and incubated for 2 hours at 25° C. on an orbital shaker. […] Plates are incubated for 1.5 hours at 25° C. on an orbital shaker. Plates are washed and 100 μl/well secondary antibody (F(ab′)₂ goat anti-human kappa light chain—HRP, 1:20,000 dilution, BioSource, Carlsbad, Calif., USA) is added, except for assay blank wells. Plates are washed twice (i.e. two cycles of 3 washes per cycle) with plate rotation between cycles. TMB substrate (Kirkegaard & Perry Laboratories, Gaithersburg, Md., USA) is added at 100 μl/well and incubated 3-5 minutes on an orbital shaker. Stop solution is added (100 μl/well) and the plate is read for absorbance at 450-570 um on a plate reader (Versamax, Molecular Devices, Sunnyvale, Calif., USA).

[20] = molecular target: T4, rhIL-17A; assay: as above
Method: as §6, §7

[21] = molecular target: T7, FLAG-tagged human IL-17F; assay: AlphaScreen
Method: Each of these three proteins was linked to an N-terminal FLAG® peptide tag (see residues 1 to 9 of SEQ ID NO.: 42). […] Donor and acceptor beads were mixed, illuminated at 680 nm, and emission was measured at 520-620 nm.

[22] = molecular target: T8, FLAG-tagged mouse IL-17A; assay: observation on which Example 19 is based
[23] = molecular target: T5, mouse IL-17A; assay: ECL (Origen)
Method: as §2

[24] = molecular target: T4, rhIL-17A; assay: indirect ELISA, rhIL-17A coated on plate
Method: Binding of anti-human-IL-17A monoclonal antibodies to rhIL-17A is assessed using an indirect enzyme-linked immunosorbent assay (ELISA). Briefly, a fixed concentration of rhIL-17A is bound directly to the wells of a microtiter plate. The monoclonal anti-IL-17A to be assayed is then is added to the rhIL-17A coated plate, where the antibody is captured and quantitated.
A 96-well U-bottom MaxiSorp plate is coated with 50 μl/well of rhIL-17A (0.5 μg/ml) in carbonate coating buffer (the “assay plate”). Carbonate coating buffer is 2.9 g/L NaHFCO₃, 1.6 g/L Na₂CO₃, pH 9.4. Plates are incubated covered at 4° C. overnight. Monoclonal antibodies to be screened are serially diluted in duplicate across the rows of a V-bottom plate such that the final volume is 60 μl/well (the “serial dilution plate”). The assay plate is washed three times with PBS-Tween in a plate washer (SkanWasher, Molecular Devices, Sunnyvale, Calif., USA) and blotted dry. PBS-Tween is obtained by adding 0.5 ml/L Tween 20 to 1×PBS. Fifty μl from each well of the serial dilution plate is transferred to the assay plate and incubated at 25° C. for one hour. Secondary antibodies are diluted 1/2000 in diluent (PBS-BSA-Tween, which is PBS-Tween with 1 g/L BSA). The secondary antibody for rat monoclonal antibodies is goat anti-rat IgG (H+L)—HRP (Jackson ImmunoResearch Laboratories, Inc., West Grove, Pa., USA). The secondary antibody for chimeric and humanized monoclonal antibodies is F(ab′)₂ goat anti-human IgG Fcγ—HRP (Jackson ImmunoResearch Laboratories, Inc.). The assay plate is washed as before. Diluted secondary antibodies (100 μl/well) are added to the appropriate wells in the assay plate, and the plate is incubated at 25° C. for 45 minutes. The assay plate is washed as before.

Row | Binder | Area Under Peak [1] | IC50, synoviocyte IL-6 production, NHP IL-17A (30 ng/ml) [2] [µg/mL] | IC50, synoviocyte IL-6 production, Native huIL-17A (10 ng/ml) [3] [µg/mL] | IC50, synoviocyte IL-6 production, rhIL-17A (30 ng/ml) [4] [µg/mL] | IC50, foreskin fibroblast (HS68) assay, rhIL-17A-induced IL-6 [5] [nM] | Kd [6] [nM] | Kd [7] [nM] | Kd [8] [nM] | IC50, Ba/F3 hIL-17Rc-mGCSFR proliferation assay, IL-17A at 100 pM [9] [pM] | IC50, Ba/F3 hIL-17Rc-mGCSFR proliferation assay, IL-17A at 276 pM [10] [pM] | IC50, synoviocyte IL-8 production, NHP IL-17A (30 ng/ml) [11] [µg/mL] | IC50, synoviocyte IL-8 production, Native huIL-17A (10 ng/ml) [12] [µg/mL] | IC50, synoviocyte IL-8 production, rhIL-17A (30 ng/ml) [13] [µg/mL] | Area Under Peak [14] | Area Under Peak [15] | IC50, inhibition of IL-6 production in NHDF cells, cyno IL-17A [16] [nM] | IC50, inhibition of IL-6 production in NHDF cells, rhIL-17A [17] [nM] | Kd [18] [nM] | IC50, Ba/F3 hIL-17Rc-mGCSFR proliferation assay, IL-17A at 100 pM [10] | also measured
1 | rat 1D10 (antibody, V domains shown, Parental rat monoclonal antibody; also called ID10; anti-IL-17A antibody 1D10) VH: QVQLKESGPGLVQPSQTLSLTCTVSGFSLTNYYVHWVRQPPGKGLEWMGGVWNDGDTSYNSVLRSRLSITRDTSKSQVLLKMSSLQTEDTATYYCAREGREGFVGYYVMDAWGPGASVTVSS VL: DIQMTQSPSFLSASVGERVTLSCKASQNINKYLDWFQQKLGEAPKLLIYNADNLHTGIPSRFSGSGSFSDFILTISSLQPEDDATYFCLQRESWPYTFGAGTKLELKR | 477000 | 0.065 | 0.025 | 0.105 | 0.065 | 0.0103 | 0.0098 | 0.0017 | 19 | 223 | 0.038 | 0.04 | 0.059 | 252000 | 136000 | 0.4 | 1 | – | – | –
2 | rat 23E12 (antibody, V domains shown, Parental rat monoclonal antibody (hybridoma PTA-7740)) VH: QVQLKESGPGLVQPSQTLSLTCTVFGFSLTNNGVTWVRQPPGKGLEWIAEVSSGGSTDYNSALKSRLSISRDTSKSQVFLRMNSLQTEDTAIYFCARQEVFTGLLDYWGQGVMVTVSS VL: DIQMTQSPASLSASLGETVTIQCQASEDIYSGLAWYHQKPGKSPQLLILGASRLHDGVPSRFSGSGSGIEYSLKINNMQTEDEGIYFCQQGLKYPPTFGGGTKLELKR | 285000 | – | – | – | 0.126 | 7 | 0.028 | 0.0028 | – | – | – | – | – | 143000 | 111000 | 0.3 | 1 | – | – | –
3 | humanized 16C10 (VH N54Q/M96A) (antibody, human IgG1, kappa, V domains shown, Human IgG1/kappa; also called hu 16C10; hu16C10) VH: QVQLQESGPGLVKPSETLSLTCTVSGFSLPSHSVSWIRQPPGKGLEWIGIIWNQGGTDYNSAFKSRVTISVDTSKNQFSLKLSSVTAADTAVYYCARNAYITDYYYENYFMDAWGQGTLVTVSS VL: DIVMTQSPLSLPVTPGEPASISCKSSQSLLFSENQKNYLAWYLQKPGQSPQLLIYWTSTRQSGVPDRFSGSGSGTDFTLKISRVEAEDVGVYYCQQSYYTPYTFGQGTKVEIKR | – | 0.07 | 0.025 | 0.07 | – | – | 0.0163 | – | 17 | 149 | 0.038 | 0.05 | 0.038 | – | – | – | – | 0.0039 | 15 pM and 13 pM and 27 pM | EC50 [19]: 0.136 nM; EC50 [20]: 0.092 nM
4 | rat 16C10 (antibody, rat IgG1, V domains shown, also called 16C10C; antibody 16C10) VH: QVELRESGPGLVQPSQTLSLTCTVSGFSLPSHSVSWIRQPPGKGLEWMGIIWNNGGTDYNSAFKSRLTISRDTSKSQVFLKMNSLQTEDTAMYFCARNMYITDYYYENYFMDAWGQGASVTVSS VL: DIVMTQSPSSLAVSIGETVTLNCKSSQSLLFSENQKNYLAWYQHKSGQSPKLLVYWTSTRQSGVPDRFMGSGSGTDFTLTISSVQAEDLAIYYCQQSYYTPYTFGAGTKLELKR | 286000 | 0.06 | – | 0.063 | 0.067 | – | 0.0017 | 0.0036 | 27 | 162 | 0.033 | – | 0.038 | – | 152000 | 0.2 | 0.5 | 0.006 | 20 pM | binding result [21]: no binding; binding result [22]: no binding; binding result [23]: no binding (tested: 1-3 µg/ml antibody in the first well); EC50 [24]: 0.274 nM
